Laboratory results published in patent publication US12415847B2, “ApoM-Fc fusion proteins for treating lung diseases” (Children's Medical Center Corporation, priority 2018, dated 2025).

How the values were obtained:
[1] = molecular target: T1, S1P1 receptor (Homo sapiens, UniProt P21453); assay: Nanobit split luciferase assay, Gi-alpha coupling; type: cell-based; conditions: transfected 293A cells; 1000 nM-0.3 nM S1P
T1 construct: expressed in transfected cells; host or cells: Human 293A cells, transient PEI transfection
Description: (§1) FIGS. 5A-5B. Nanobit analysis of Human ApoMFc-S1P, Mouse ApoMFc-S1P, or BSA-S1P (Positive Control). […] BSA-S1P is the well-established activator of the S1PR1 and it was tested whether Human ApoMFc-S1P, Mouse ApoMFc-S1P gave equivalent induction of receptor activation. Data are the means of triplicate wells with the baseline (pre-stimulation) signal subtracted from the final luciferase signal and graphs are expressed with standard deviation.
(§2) The S1P receptors are members of the G-protein coupled receptor (GPCR) superfamily. Receptor activation is characterized by immediate activation of a G-protein complex (alpha-beta-gamma) that activates multiple intracellular signaling pathways and then secondary activation of coupling to the protein beta-arrestin, which may cause receptor internalization and desensitization as well as activation of other intracellular signaling pathways. […]
(§3) There are two general forms of this assay. […] Upon activation of the GPCR, the G-Protein alpha-beta-gamma complex […] and Luciferase activity may be detected by measuring emitted light in the presence of luciferase substrate (luciferin). […] It is notable that G-Protein assay results in decreased relative fluorescence with increased receptor activation, while the Beta-arrestin coupling assay results in increased relative fluorescence with increased receptor activation. […]
Target sequence in this assay (P21453 whole entry): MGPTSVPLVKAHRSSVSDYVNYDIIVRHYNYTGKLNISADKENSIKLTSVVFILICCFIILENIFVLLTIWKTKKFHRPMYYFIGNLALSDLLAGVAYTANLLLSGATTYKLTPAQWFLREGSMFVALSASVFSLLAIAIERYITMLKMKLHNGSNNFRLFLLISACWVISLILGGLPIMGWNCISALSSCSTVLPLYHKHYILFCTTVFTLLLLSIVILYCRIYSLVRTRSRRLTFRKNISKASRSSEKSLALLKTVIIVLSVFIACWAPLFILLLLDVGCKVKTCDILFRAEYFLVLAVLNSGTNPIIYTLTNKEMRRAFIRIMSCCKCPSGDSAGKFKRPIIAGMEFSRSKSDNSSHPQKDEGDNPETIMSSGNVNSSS

[2] = system: HUVECs; assay: Trans-endothelial electrical resistance (TEER); type: cell-based, human; conditions: 4 μg/well, 250 nM S1P, 6 hour time point
Description: FIG. 4. Human and Mouse ApoM-Fc-S1P enhanced endothelial Barrier Protection. Human ApoMFc-S1P (4 μg/well, 250 nM S1P), Mouse ApoMFc-S1P (4 μg/well, 250 nM S1P), or BSA-S1P (250 nM S1P; Positive Control) were analyzed using transepithelial/transendothelial electrical resistance (TEER). The results of TEER analysis of HUVECs at the 6 hour time point are shown. BSA-S1P is the well-established activator of the S1PR1 and it was tested whether Human ApoMFc-S1P, Mouse ApoMFc-S1P gave equivalent induction of receptor activation. All results are normalized to individual well baselines (baseline=1), expressed as the mean of triplicate wells, and Standard Deviation (S.D.) is expressed as gray vertical bars over the course of the data set. […]
0.1 ml of Human Umbilical Vascular Endothelial Cells (HUVECS; 200,000 cells/ml in EGM-2 culture medium, Lonza) were seeded into a 96 well electrical conductance chamber (ECIS Cultureware; Applied Biophysics, Inc) pre-coated with 1% Fibronectin resuspended in Saline. After overnight incubation at 37° C./5% CO2, the 96-well plate was placed on the ECIS reader (Applied Biophysics; Ztheta 96-well array station) and baseline resistance was established which represents the quality of Endothelial junction strength or Endothelial barrier function. […]

[3] = molecular target: T1, S1P1 receptor; assay: Nanobit split luciferase assay, beta-arrestin coupling; type: cell-based; conditions: transfected 293A cells; 1000 nM-0.3 nM S1P
Description: as §1, §2, §3
Target sequence in this assay (P21453 whole entry): as above
Target sequence in this assay (P49407 whole entry partner): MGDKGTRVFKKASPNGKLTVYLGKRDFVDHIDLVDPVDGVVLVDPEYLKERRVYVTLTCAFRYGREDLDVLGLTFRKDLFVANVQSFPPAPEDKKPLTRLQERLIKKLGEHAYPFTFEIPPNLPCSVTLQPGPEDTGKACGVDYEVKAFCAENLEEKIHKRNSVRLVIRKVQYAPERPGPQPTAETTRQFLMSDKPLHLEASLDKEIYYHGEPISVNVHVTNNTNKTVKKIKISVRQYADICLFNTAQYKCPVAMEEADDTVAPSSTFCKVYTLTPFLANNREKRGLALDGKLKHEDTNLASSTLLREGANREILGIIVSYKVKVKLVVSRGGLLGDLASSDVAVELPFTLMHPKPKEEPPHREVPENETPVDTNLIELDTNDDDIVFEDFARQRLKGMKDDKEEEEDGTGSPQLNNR

Human ApoMFc-S1P: Human ApoM-Human IgG1 Fc (hApoM-Fc) loaded with S1P
activation of Gi-alpha coupling to the S1P1 receptor [1]: equivalently activates
endothelial barrier protection (TEER) [2]: enhance endothelial Barrier Protection
activation of beta-arrestin coupling to the S1P1 receptor [3]: equivalently activates
